No end group written: not given here.
How the values were obtained:
[1] = molecular target: T1, Human fibrinogen (Homo sapiens, UniProt P02671+P02675+P02679); experiment: Fibrinogen binding to peptide resin columns (affinity chromatography, UV 280 nm)
T1 construct: purchased Enzymes Research Labs (South Bend, Ind.)
T1 sequence (P02671 20-629 limits assumed): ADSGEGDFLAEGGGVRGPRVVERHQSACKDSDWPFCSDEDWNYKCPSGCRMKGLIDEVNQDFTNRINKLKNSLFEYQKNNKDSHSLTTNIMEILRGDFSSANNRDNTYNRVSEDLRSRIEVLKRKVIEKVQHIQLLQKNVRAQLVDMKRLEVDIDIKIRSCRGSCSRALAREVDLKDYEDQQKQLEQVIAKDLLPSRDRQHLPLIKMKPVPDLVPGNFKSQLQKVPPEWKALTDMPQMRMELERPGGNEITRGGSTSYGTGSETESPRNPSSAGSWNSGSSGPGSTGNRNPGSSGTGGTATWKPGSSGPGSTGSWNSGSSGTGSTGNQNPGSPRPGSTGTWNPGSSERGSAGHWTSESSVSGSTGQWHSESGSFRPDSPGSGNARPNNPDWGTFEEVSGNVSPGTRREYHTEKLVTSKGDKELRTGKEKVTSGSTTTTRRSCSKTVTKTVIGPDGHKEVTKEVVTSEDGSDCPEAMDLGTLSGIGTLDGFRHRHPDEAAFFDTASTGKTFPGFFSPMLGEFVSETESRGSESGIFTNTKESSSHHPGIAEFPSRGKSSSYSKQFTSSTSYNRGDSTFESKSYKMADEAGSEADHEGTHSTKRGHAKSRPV
T1 sequence (P02675 31-491): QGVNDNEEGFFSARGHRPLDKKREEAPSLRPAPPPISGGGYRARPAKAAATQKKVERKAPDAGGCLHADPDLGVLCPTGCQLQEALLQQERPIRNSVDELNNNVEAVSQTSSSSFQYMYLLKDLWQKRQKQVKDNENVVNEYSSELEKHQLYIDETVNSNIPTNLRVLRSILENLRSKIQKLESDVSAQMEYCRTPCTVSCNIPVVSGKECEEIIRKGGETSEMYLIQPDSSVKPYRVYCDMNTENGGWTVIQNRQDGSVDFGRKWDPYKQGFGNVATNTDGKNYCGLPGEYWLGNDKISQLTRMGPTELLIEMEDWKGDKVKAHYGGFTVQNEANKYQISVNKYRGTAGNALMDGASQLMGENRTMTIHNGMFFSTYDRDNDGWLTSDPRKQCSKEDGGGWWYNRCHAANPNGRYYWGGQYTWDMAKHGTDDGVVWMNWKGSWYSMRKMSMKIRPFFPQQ
T1 sequence (P02679 27-437 isoform P02679-2 limits assumed): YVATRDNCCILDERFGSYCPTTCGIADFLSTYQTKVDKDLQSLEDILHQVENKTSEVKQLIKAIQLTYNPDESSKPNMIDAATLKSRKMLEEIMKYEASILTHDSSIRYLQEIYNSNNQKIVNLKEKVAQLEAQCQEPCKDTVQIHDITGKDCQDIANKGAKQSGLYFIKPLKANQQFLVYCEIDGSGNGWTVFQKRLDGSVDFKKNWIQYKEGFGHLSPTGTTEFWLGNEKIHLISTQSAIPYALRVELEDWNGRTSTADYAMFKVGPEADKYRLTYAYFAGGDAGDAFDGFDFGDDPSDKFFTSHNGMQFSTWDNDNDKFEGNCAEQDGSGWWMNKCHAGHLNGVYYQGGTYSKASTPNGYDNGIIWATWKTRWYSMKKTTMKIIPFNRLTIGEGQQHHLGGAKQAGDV
Method: (§1) Dried peptide resins were packed into 0.6 ml columns (0.4 cm×5 cm, Thomson, Va.), and evaluated on a Waters HPLC-system (Milford, Mass.) with a UV-detector (Knauer, Germany) monitoring at 280 nm. The columns were conditioned with over 5 volumes of 20% ethanol in water, followed by a minimum of 5 volumes of water.
(§2) Human fibrinogen was purchased from Enzymes Research Labs (South Bend, Ind.), and 25% human serum albumin (HSA) was a donation from the Bayer Corporation (Clayton, N.C.). The following buffers were used for both dissolving fibrinogen and diluting HSA.
Peptide resin columns were equilibrated in Buffer A. The following program was used for each column run: From time 0-15 minutes, Buffer A was applied. At time 10 minutes, a 50 μl sample was injected onto the column with a 50 μl sample loop. From time 15-20 minutes, bound protein was step-eluted by switching to 0.4M acetic acid (Fisher), pH 2.6. The column was then re-equilibrated with Buffer A from time 20-30 minutes. A flow rate of 1 ml/min was used. For each column two injections were made: #1 Buffer A (blank); #2 10 μg/μl Fibrinogen dissolved in Buffer A.
(§3) This column was equilibrated in Buffer A, and the following program was used for each column run: From time 0-15 minutes, Buffer A was applied. At time 5 minutes, a 50 μl sample dissolved in buffer A was injected onto the column with a 100 μl sample loop. From time 15-20 minutes, bound protein was step-eluted by switching to 0.1M acetic acid, pH 2.9, followed by 0.4M acetic acid, pH 2.6, from time 20-21 minutes. The column was then re-equilibrated with Buffer A from time 21-30 minutes. During the column run, the flow rate was 1 ml/min from time 0-21 minutes; it was increased to 2 ml/min from time 21-30 minutes.
(§4) In total, seven injections were made: #1 Buffer A (blank); #2 100 μg/μl HSA; #3 20 μg/μl Fibrinogen; #4 Mixture of 5 μg/μl Fibrinogen and 90 μg/μl HSA; #5 Mixture of 10 μg/μl Fibrinogen and 75 μg/μl HSA; #6 Mixture of 20 μg/μl Fibrinogen and 50 μg/μl HSA; #7 20 μg/μl Fibrinogen.
(§5) After equilibrating in Buffer B, the following program was used for each column run: From time 0-15 minutes, Buffer B was applied. At time 5 minutes, 50 μL sample dissolved in Buffer B was injected onto the column with a 100 μl sample loop. From time 15-20 minutes, bound protein was step-eluted by switching to 20 mM acetic acid, pH 3.2, followed by 0.4M acetic acid, pH 2.6, from time 20-23 minutes. The column was then re-equilibrated with Buffer B from time 23-30 minutes. During the column run, the flow rate was 1 ml/min from time 0-23 minutes, then it was increased to 2 ml/min from time 23-30 minutes. In total, for each column seven injections were made: #1 Buffer B (blank); #2 for WQEHYN-column: 50 μg/μl HSA, and for YENYGY-column: 100 μg/μl HSA; #3 20 μg/μl Fibrinogen; #4 Mixture of 5 μg/μl Fibrinogen and […] HSA; #5 Mixture of 10 μg/μl Fibrinogen and 50 μg/μl HSA; #6 Mixture of 20 μg/μl Fibrinogen and 50 μg/μl HSA; #7 20 μg/μl Fibrinogen.

[2] = molecular target: T1, Human fibrinogen; experiment: Fibrinogen recovery from peptide columns (acetic acid elution, A280 of eluted peak); assay type: binding
Method: as §1, §2, §3, §4, §5
In parts (b) and (c), eluted protein was collected in 1.25 ml fractions, some in which pH was measured. The fractions were not re-adjusted to a neutral pH. The purity of the eluted protein was assessed by SDS-PAGE (Biorad) of non-reduced as well as of reduced samples. Broad Range Standards (Biorad) were used as molecular weight standards, and dithiothreitol (Sigma) was used as the reducing agent. Eluted protein was centrifuged and supernatant collected for determination of fibrinogen concentration by A280.

[3] = molecular target: T2, human serum albumin (HSA) (Homo sapiens, UniProt P02768); experiment: HSA binding to peptide resin columns (affinity chromatography); details: conditions of the experimental section, FIGS. 3-5
T2 construct: purchased Bayer Corporation (Clayton, N.C.), donated rather than bought
Method: as §1, §2
This column was equilibrated in Buffer A, and the following program was used for each column run: From time 0-15 minutes, Buffer A was applied. At time 5 minutes, a 50 μl sample dissolved in buffer A was injected onto the column with a 100 μl sample loop. From time 15-20 minutes, bound protein was step-eluted by switching to 0.1M acetic acid, pH 2.9, followed by 0.4M acetic acid, pH 2.6, from time 20-21 minutes. The column was then re-equilibrated with Buffer A from time 21-30 minutes. During the column run, the flow rate was 1 ml/min from time 0-21 minutes; it was increased to 2 ml/min from time 21-30 minutes. […]

[4] = conditions of the experimental section, FIGS. 3-5
[5] = Column run #3, injected 1000 μg fibrinogen (20 μg/μl fibrinogen alone)
[6] = Column run #4, injected 250 μg fibrinogen (5 μg/μl, mixture with HSA)
[7] = Column run #5, injected 500 μg fibrinogen (10 μg/μl, mixture with HSA)
[8] = Column run #6, injected 1000 μg fibrinogen (20 μg/μl, mixture with 50 μg/μl HSA)
[9] = Column run #7, injected 1000 μg fibrinogen (20 μg/μl fibrinogen alone)

Row | fibrinogen binding to peptide column ([1]; Buffer A (preliminary test / later tests)) | fibrinogen binding to peptide column ([1]; Buffer B) | fibrinogen binding to peptide column [1, 4] | Fibrinogen recovery, column peak [2, 5] [µg] | Fibrinogen recovery, column peak [2, 6] [µg] | Fibrinogen recovery, column peak [2, 7] [µg] | Fibrinogen recovery, column peak [2, 8] [µg] | Fibrinogen recovery, column peak [2, 9] [µg] | HSA binding to peptide column [3] | Substance
1 | did not bind fibrinogen | did not bind fibrinogen | – | – | – | – | – | – | – | W-E-Q-(S)-N-P (WEQSNP)
2 | – | – | bound fibrinogen | 530 | 150 | 280 | 520 | 530 | – | Tyr-Glu-Asn-Tyr-Gly-Tyr (YENYGY; not fully specified (C-terminus); printed as Tyr-Glu-Asn-Tyr-Gly-Tyr) [hexapeptide ligand synthesized onto TOTDA-modified Toyopearl resin]
3 | – | – | bound fibrinogen | 330 | 70 | 140 | 220 | 240 | none of these peptides bound HSA | Trp-Gln-Glu-His-Tyr-Asn (WQEHYN; not fully specified (C-terminus); printed as Trp-Gln-Glu-His-Tyr-Asn) [hexapeptide ligand synthesized onto TOTDA-modified Toyopearl resin]
4 | – | – | bound fibrinogen | 360 | 100 | 150 | 310 | 340 | none of these peptides bound HSA | Trp-Gln-Glu-Thr-Tyr-Gln (WQETYQ; not fully specified (C-terminus); printed as Trp-Gln-Glu-Thr-Tyr-Gln) [hexapeptide ligand synthesized onto TOTDA-modified Toyopearl resin]

Reference: US5783663A, “Peptide ligands for affinity purification of fibrinogen” (Bayer Corporation, priority 1998, dated 1998)
